{
  "source": "patent US20080009025A1",
  "about": "(published 2008)",
  "binders": {"B1": {"name": "GST-PDK1[I119A] (enzyme, not shown: a dimerising Fc or GST; small tags and cut ends)", "chain": "MARTTSQLYDAVPIQSSVVLCSCPSPSMVRTQTESSTPPGIPGGSRQGPAMDGTAAEPRPGAGSLQHAQPPPQPRKKRPEDFKFGKILGEGSFSTVVLARELATSREYAIKILEKRHIAKENKVPYVTRERDVMSRLDHPFFVKLYFTFQDDEKLYFGLSYAKNGELLKYIRKIGSFDETCTRFYTAEIVSALEYLHGKGIIHRDLKPENILLNEDMHIQITDFGTAKVLSPESKQARANSFVGTAQYVSPELLTEKSACKSSDLWALGCIIYQLVAGLPPFRAGNEYLIFQKIIKLEYDFPEKFFPKARDLVEKLLVLDATKRLGCEEMEGYGPLKAHPFFESVTWENLHQQTPPKLTAYLPAMSEDDEDCYGNYDNLLSQFGCMQVSSSSSSHSLSASDTGLPQRSGSNIEQYIHDLDSNSFELDLQFSEDEKRLLLEKQAGGNPWHQFVENNLILKMGPVDKRKGLFARRRQLLLTEGPHLYYVDPVNKVLKGEIPWSQELRPEAKNFKTFFVHTPNRTYYLMDPSGNAHKWCRKIQEVWRQRYQSHPDAAVQ"}},
  "target": "T1, PIFtide (24 residue synthetic peptide encompassing the PDK1 binding site on PIF) (human)",
  "T1 construct": "also called wild type PIF peptide; 24 residue PIF peptide",
  "T1 peptide": "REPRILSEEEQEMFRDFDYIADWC",
  "assay": "method not stated",
  "data": [
    {"binder": "B1", "values": [
      {"measurement": "fold decrease in affinity (against wild type PDK1)", "result": "~10", "unit": "fold"}
    ]}
  ]
}
